“And” between values parts separate entries of the source, which are not always exact repeats. Equal entries are not always repeated.
Tests used:
[1] = test system: Nicotiana benthamiana leaves; assay: Transient expression via Agrobacteria-infiltration, extent of viral movement; assay type: in vivo; conditions: transient expression in Nicotiana benthamiana leaves
Procedure: (a) Schematics of PDLP5-m5, PDLP5-C, and PDLP5-2C mutants as created by overlapping PCR. (b) Transient expression of mutants in Nicotiana benthamiana leaves.
We also created mutants altering just two cysteines (“CC”, residues 288 and 289 of the C-terminal tail region) or a single cysteine (“C”, residue 298 of the C-terminal tail region) residues to A1a. The phenotypes of these partial mutants, as well as the PDLP5-OX, pldp5-1 and PDLP5-m5, were tested in transient expression in Nicotiana benthamiana leaves via Agrobacteria-infiltration, targeting the extent of viral movement for comparison.

[2] = test system: lateral root primordia (LRP); assay: LRP progression after gravitropic stimulus; assay type: in vivo, Arabidopsis thaliana; conditions: by 48 hpg
Procedure: (A) Lateral root development in wild type (WT) plants, plants having a severe knock down of PDLP5 (pdlp5-1), and plants overexpressing PDLP5 (PDLPOE) expressing DR5:GUS. Arrowheads indicate tertiary roots. (B) Quantification of total lateral root numbers (both emerged and unemerged secondary [2°], tertiary [3°], and quaternary [4°] roots). n≧30 per seedling set. Bars, standard deviation. Stars, significance determined by student T-test (P<0.01). (C) A diagram depicting several stages of LRP emergence. (D) Percent distribution of LRP stages, recorded at root bend at indicated time points following gravistimulation at 3 dpg. n≧20 seedlings per set. […]
GUS solution (100 mM sodium phosphate buffer, pH 7.0, 10 mM EDTA, 0.5 mM each potassium ferrocyanide and potassium ferricyanide, 1.24 mM X-Gluc, and 0.1% Triton X-100) was vacuum-infiltrated into plant tissue for five minutes, then removed from vacuum and incubated in 37° C. for 3 to 12 hrs, followed by a series of ethanol washes. […] LRP were quantified by counting both the emerged LR and unemerged LR, as determined by DRS::GUS staining of the primordia, under a dissecting microscope (1.2× magnification). LRP stages were determined by examining ethanol-cleared, GUS-stained tissue using 40× water lens.

[3] = test system: LAX3pro:LAX3-YFP; assay: LAX3pro:LAX3-YFP signal in overlying Co cells after gravistimulation; assay type: in vivo, Arabidopsis thaliana
Procedure: (A) Seedlings were gravistimulated at 3 days post germination and the LAX3::LAX3-YFP signal was monitored under a confocal microscope from 14 hours post-gravitropic induction through 36 hours post-gravitropic induction at the root bend. Images were selected to show the earliest detection time points. […] Scale bars, 50 μm. (B) Quantification of relative occurrence of LAX3-YFP signal in Co at 22 hours post-gravitropic induction (hpg) based on the data presented in Table 3.
We monitored LAX3-YFP signal accumulation in overlying Co using the gravitropic assay.
Arabidopsis seedlings expressing LAX3::LAX3:YFP in the desired background were grown as described above for three days, followed by gravistimulation by turning the plates 90° . The cortical cell fluorescence at the root bend was monitored at different time points using a Zeiss LSM 780 confocal upright light microscope using a W Plan-Apochromat 20×/1.0 DIC M27 75 mm objective and the […] excitation line of an argon laser with 520-550 nm band pass emission filter. Images are presented as 3-D composites of 30 μm-thick z-stacks.

[4] = test system: Arabidopsis thaliana; assay: Vegetative growth, flowering and seed yield of plants; assay type: in vivo; conditions: 22-20° C., 16/8 hours light/darkness
Procedure: Wild type (WT) plants, plants overexpressing […]), and plants with a severe knock down of […] used as comparisons. (a) Whole plants at 10, 14, and 18 days post germination (dpg). Plants were grown at 22-20° C. with 50% humidity and with 16/8 hours light/darkness. (b) Leaves at 3 weeks post germination. Plants were grown at 24-22° C. with 70% humidity and with 16/8 hours light/darkness. […] Wild type (WT) plants, plants overexpressing PDLP5 (OX), and plants with a severe knock down of PDLP5 (KO) were used as comparisons. […] Seeds were germinated on plates, were transferred to soil after 1 week, and plants were grown at 22-20° C. with 16/8 hours light/darkness. […] Wild type (WT) plants and plants overexpressing […]) were used as comparisons. Plants were grown at 24-22° C. with 70% humidity and with 16/8 hours light/darkness. […] The sequence of the PCR product was confirmed followed by transformation of Top10 E. coli competent cells. […] Agrobacteria were transformed with the […]5 clone.

[5] = test system: plasmodesmata (PD); conditions: Arabidopsis plants; cited from earlier work
[6] = 22 hours post-gravitropic stimulation

B1: PDLP5OE: Wild-type A. thaliana PDLP5 protein (SEQ ID NO:4) constitutively overexpressed in plants under the 35S promoter (protein, listed as Arabidopsis thaliana)
chain: MIKTKTTSLLCFLLTAVILMNPSSSSPTDNYIYAVCSPAKFSPSSGYETNLNSLLSSFVTSTAQTRYANFTVPTGKPEPTVTVYGIYQCRGDLDPTACSTCVSSAVAQVGALCSNSYSGFLQMENCLIRYDNKSFLGVQDKTLILNKCGQPMEFNDQDALTKASDVIGSLGTGDGSYRTGGNGNVQGVAQCSGDLSTSQCQDCLSDAIGRLKSDCGMAQGGYVYLSKCYARFSVGGSHARQTPGPNFGHEGEKGNKDDNGVGKTLAIIIGIVTLIILLVVFLAFVGKCCRKLQDEKWCK
extent of viral movement [1]: delay in viral movement
LRP emergence [2]: none had yet emerged
LAX3pro:LAX3-YFP cortical signal, ratio PDLP5:WT ([3]; 24 hpg): 0.42 and 0.68
LAX3pro:LAX3-YFP cortical signal, seedlings ([3]; 24 hpg): 33%
LAX3pro:LAX3-YFP cortical signal, ratio PDLP5:WT ([3]; 24 hpg, mean): 0.55
LAX3pro:LAX3-YFP cortical signal, ratio PDLP5:WT ([3]; 36 hpg): 1
ratio to WT of seedlings expressing LAX3pro:LAX3-YFP in Co cells [3, 6]: 0
seedlings expressing LAX3pro:LAX3-YFP in overlaying Co cells [3, 6]: no fluorescent signals evident
rosette diameter [4]: reduced rosette diameter
movement between cells reduced by [5]: 70%

Reference: patent US20160272995A1, “MANIPULATION OF PLASMODESMAL CONNECTIVITY TO IMPROVE PLANT YIELD AND FITNESS” (UNIVERSITY OF DELAWARE, priority 2013, published 2016)
